Each block holds one binder with its values, some of them ahead of it.
Columns and labels:
[1] = molecular target: CD22 (human) (UniProt P20273); experiment: SPR (Biacore T200), scFv-Fc captured on an anti-IgG CM5 chip, interaction partner injected, 1:1 Langmuir fit
[2] = molecular target: CD19 (human) (UniProt P15391); experiment: as above
Sequence of CD19 (human) (P15391 21-278 limits assumed): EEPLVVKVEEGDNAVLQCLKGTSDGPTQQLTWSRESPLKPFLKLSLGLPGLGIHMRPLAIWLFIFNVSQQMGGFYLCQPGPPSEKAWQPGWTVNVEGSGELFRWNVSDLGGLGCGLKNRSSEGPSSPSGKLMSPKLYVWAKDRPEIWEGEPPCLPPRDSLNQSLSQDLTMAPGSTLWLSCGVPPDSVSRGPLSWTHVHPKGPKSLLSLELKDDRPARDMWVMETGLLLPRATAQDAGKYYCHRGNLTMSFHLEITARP

- Kd [1]: 32 nM
- koff [1]: 0.00226 s⁻¹
- kon [1]: 68300 M⁻¹ s⁻¹
B1: humanized CD22ALAb scFv (scFv, part only; not given: VH-VL linker and Fc, not shown: another chain or arm of the molecule; a dimerising Fc or GST; small tags and cut ends)
scFv: EVQLVESGAEVKKPGSSVKVSCKASGYTFTNYWINWVRQAPGQGLEWIGNIYPSDSFTNYNQKFKDRATLTVDKSTSTAYLELRNLRSDDTAVYYCTRDTQERSWYFDVWGQGTLVTVSSDIVMTQSPATLSVSPGERATLSCRSSQSLVHSNGNTYLHWYQQKPGQAPRLLIYKVSNRFSGVPARFSGSGSGVEFTLTISSLQSEDFAVYYCSQSTHVPWTFGQGTRLEIK

- koff [2]: 0.000328 s⁻¹
- kon [2]: 178000 M⁻¹ s⁻¹
B2: murine CD19ALAb scFv (scFv, part only; not given: VH-VL linker and Fc, not shown: another chain or arm of the molecule; a dimerising Fc or GST; small tags and cut ends)
scFv: QVQLQQSGAELVRPGSSVKISCKASGYAFSSYWMNWVKQRPGQGLEWIGQIWPGDGDTNYNGKFKGKATLTADESSSTAYMQLSSLASEDSAVYFCARRETTTVGRYYYAMDYWGQGTTVTVSSDIQLTQSPASLAVSLGQRATISCKASQSVDYDGDSYLNWYQQIPGQPPKLLIYDASNLVSGIPPRFSGSGSGTDFTLNIHPVEKVDAATYHCQQSTEDPWTFGGGTKLEIK

From patent publication US12398194
